The values that follow come from patent US20160311886A1, “Constructs Binding to Phosphatidylserine and Their Use in Disease Treatment and Imaging” (Board of Regents, The University of Texas System, priority 2005, published 2016).

“Also recorded” adds a separate entry of the source. Like-named read-outs stand apart in the source and are kept apart here.

The nature of series [1]: Serum dependence of binding to PS. How it is done:
The serum dependence or independence of the antibodies is also set forth in Table 2 (see also, Example XXX).
The 1B9, 2G7 and 7C5 antibodies behave essentially the same. These antibodies recognize only PS and require serum or serum proteins for binding to PS. The binding of 1B9, 2G7 and 7C5 to various phospholipids in the present example was assayed only in the presence of 10% bovine serum, whereas binding of the other antibodies was tested either in the absence or in the presence of serum.

The next series is described as follows: Anti-PS ELISA. In kind it is binding. As for the experimental part:
The anti-PS ELISA used in the present studies example is conducted as follows. Unless particular differences are specified, this is the format of the ELISA used throughout the studies of the present application.
The ELISA of the present example is exemplified using the antigen PS (P-6641 25 mg 10 mg/ml (solvent is Chloroform:MeOH 95:5) in 2.5 ml bottle). Other phospholipids can be used using the same protocol. The PS (or other phospholipids) stock solution should be aliquoted and stored in an airtight container at −30° C. The preferred 96 well plates are Dynatech U bottom Immulon 1 (from Dynatech Labs, Cat#011-010-3550).
The standard blocking buffer used in the present example is 10% bovine serum dissolved in PBS. Other blocking solutions are suitable, but any detergents should be excluded from block and wash solutions. The primary antibody is the test sample or admixture. […] The developing solutions are: 10 ml of 0.2M Na2PO4, 10 ml of 0.1M citric acid, one 10 mg tablet of OPD, and 10 μl of hydrogen peroxide. The stop solution is 0.18 M H2SO4.
The protocol of the present example entails coating 96-well plate with PS as follows: dilute the PS stock solution in n-hexane to 10 μg/ml and mix well. Add 50 μl to each well and allow this to evaporate for one hour. Add 200 μl of 10% serum (or other blocking buffer) to each well, cover and maintain at room temperature for 2 hours or overnight at 4° C. Wash the plate three times with PBS. Add the primary antibody (dilute in blocking buffer) and incubate for 2 hours at 37° C. Wash three times with PBS. […] Wash the plate three times with PBS. Develop the ELISA by adding 100 μl of developing solution to each of the wells, develop for 10 minutes, then add 100 μl of stop solution to each plate and read the O.D. at 490 nm.
(In an ELISA, binding on a coated surface is turned into a signal by an enzyme label.)

Series [2] is described as follows: Phospholipid specificity ELISA. In kind it is binding. How it is done: The specificity of the antibodies was determined by ELISA using plates coated with the following phospholipids: PS, phosphatidylserine; PE, phosphatidylethanolamine; PI, phosphatidylinositol; PA, phosphatidic acid; PG, phosphatidylglycerol; PC, phosphatidylcholine; CL, cardiolipin; and SM, sphingomyelin.

The next series concerns tumors. As to the kind of experiment: 3G4 in syngeneic and xenogeneic tumor models (overall). It is filed as in vivo. The following applies: 100 μg i.p. 3 times a week.
For series [3] the following is noted: mouse, in vivo, iv.
A short description of series [4]: 3G4 reactivity with plastic-immobilized phospholipids and liposome competition. It is filed as binding. As for the experimental part:
Phospholipids were dissolved in n-hexane to a concentration of 50 μg/ml. 100 μl of this solution was added to wells of 96-well microtiter plates. After evaporation of the solvent in air, the plates were blocked for 2 h with 10% FBS diluted in DPBS containing 2 mM Ca^2+ (binding buffer). […] Serial two-fold dilutions were prepared in the plates (100 μl per well). The plates were then incubated for 2 hr. at room temperature. […] Secondary reagents were detected by using chromogenic substrate OPD followed by reading plates at 490 nm using a microplate reader (Molecular Devices, Palo Alto, Calif.).
Specificity of phospholipid recognition was further confirmed by competition assays with various liposomes. […] The solutions were dried under nitrogen to form a thin layer in a round-bottomed glass flask. 10 ml of Tris buffer (0.1 M, pH 7.4) were then added and the flask was sonicated five times for 2 min. […] The mixture was added to phospholipid-coated plates.
Liposomes were prepared from solutions of 5 mg of a single phospholipid in chloroform. The solutions were dried under nitrogen to form a thin layer in a round-bottomed glass flask. Ten ml of Tris buffer (0.1 M, pH 7.4) were then added and the flask was sonicated five times for 2 min. […] The mixture was added to PS-coated plates (after standard blocking), incubated for 1 hour, washed and the secondary antibody added. After 1 hour, the plates were washed and developed for 5 minutes using OPD.

The subject of the next series is tumor cells. As to the kind of experiment: Direct inhibitory effects of 3G4 on tumor cells in vitro. In kind it is cell-based.
The subject of series [5] is ABAE cells with exposed PS. As to the kind of experiment: Live-cell binding assay on LPC-treated endothelial cells. The note with it: DMEM+10% FBS. It is filed as cell-based, bovine. The procedure, abridged: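 ABAE cells cultured overnight were treated with 200 μM lysophosphatidylcholine to expose PS, then fixed in 4% paraformaldehyde and antibody binding was detected with biotin anti-mouse secondary plus FITC-streptavidin, with DAPI counterstain. Binding area is expressed as FITC/DAPI pixel ratio relative to basal binding, averaged over five 200× images (±SD).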

Setting [6] is: MW used for conversion: IgM 900 kDa, IgG 150 kDa, Annexin V 36 kDa, read-out: EC50.

For orientation: EC50 means the concentration that produces a half-maximal response.

Regarding “Annexin V: High affinity PS binding ligand; natural ligand binding anionic phospholipids and PE”, in series [1], the “Serum cofactor?” value is “No”. For the same molecule, the EC50 in the series “Anti-PS ELISA” (setting [6]) was found to be 2.77 nM; in “Anti-PS ELISA” (dilutions of tissue culture supernatants) it was 0.100 µg/mL. In “Anti-PS ELISA” (from EC50 in nM), the “Affinity vs. 3SB (−fold increased)” value is given as 0.18 fold. Moreover, the “Binding vs. 3SB (−fold increased)” value in the series “Anti-PS ELISA” (from EC50 in μg/ml) is reported as 4.68 fold. In addition, the “Relative Strength of Reactivity on ELISA” value in series [2] is recorded as “PS = PE = PI = PA > CL > PG”.

B1: 3G4: Mouse IgG3 kappa monoclonal antibody to PS and anionic phospholipids; binding mediated by β2-glycoprotein I (antibody, listed as Mus musculus)
VH: MGWTWIFILILSVTTGVHSEVQLQQSGPELEKPGASVKLSCKASGYSFTGYNMNWVKQSHGKSLEWIGHIDPYYGDTSYNQKFRGKATLTVDKSSSTAYMQLKSLTSEDSAVYYCVKGGYYGHWYFDVWGAGTTVTVSSATTTAPSVYPLVP
VL: MDMRAPAQILGFLLLLFPGTRCDIQMTQSPSSLSASLGERVSLTCRASQDIGSSLNWLQQGPDGTIKRLIYATSSLDSGVPKRFSGSRSGSDYSLTISSLESEDFVDYYCLQYVSSPPTFGAGTKLELKRADAAPTVFIFGRIP
With B1, the “Serum cofactor?” value in series [1] was “β2-glycoprotein I and Yes,”. Besides, in “Anti-PS ELISA” (setting [6]), the EC50 worked out at 0.266 nM. For the same molecule, in the series on tumors, the “toxicity in tumor-bearing mice” value is “No toxicity was observed”. The binding specificity profile entry in series [2] is reported as “PS=PA=PI=PG>CL>>PE”. In series [3], the Volume of distribution is 0.1 L/kg, the “half-life in the α-phase of clearance” value is 3 h and the “half-life in the β-phase of clearance” value was 120 h. Besides, in series [4], the “binding to neutral phospholipids (PE, PC and SM) in ELISA” value is “does not bind”. The “binding to anionic phospholipid-coated plates” value in series [4] (1 mg/ml human β2-glycoprotein I, no serum) is “Full binding was restored”. The “effect of EDTA on binding” value in series [4] (5 mM EDTA) is recorded as “unaffected”. Moreover, the “reduction of binding to anionic phospholipid-coated plates” value in series [4] (absence of serum) is reported as 90%. Also, the “competition by phospholipid liposomes” value in series [4] (liposomes of single phospholipids) is “blocked by liposomes prepared from PS, PA, PI and CL; also recorded: blocked by liposomes prepared from anionic phospholipids”. Also, in the series on tumor cells, the “direct inhibitory effect on tumor cells” value is “No direct inhibitory effect on tumor cells was observed”. Also, the “binding to LPC-treated ABAE cells” value in series [5] (20 nM) is given as “bound to LPC-treated ABAE cells”. The “increase in area of binding upon LPC-treatment” value in series [5] (200 μM LPC) is “greater than 500 fold”.
